T1: human IL-4Rα on cells (human PBMC B cells and CD4+ T cells, Daudi cells, HEK-Blue IL-4/IL-13 cells, myeloid … (human, UniProt P24394 26-825))
T1 sequence: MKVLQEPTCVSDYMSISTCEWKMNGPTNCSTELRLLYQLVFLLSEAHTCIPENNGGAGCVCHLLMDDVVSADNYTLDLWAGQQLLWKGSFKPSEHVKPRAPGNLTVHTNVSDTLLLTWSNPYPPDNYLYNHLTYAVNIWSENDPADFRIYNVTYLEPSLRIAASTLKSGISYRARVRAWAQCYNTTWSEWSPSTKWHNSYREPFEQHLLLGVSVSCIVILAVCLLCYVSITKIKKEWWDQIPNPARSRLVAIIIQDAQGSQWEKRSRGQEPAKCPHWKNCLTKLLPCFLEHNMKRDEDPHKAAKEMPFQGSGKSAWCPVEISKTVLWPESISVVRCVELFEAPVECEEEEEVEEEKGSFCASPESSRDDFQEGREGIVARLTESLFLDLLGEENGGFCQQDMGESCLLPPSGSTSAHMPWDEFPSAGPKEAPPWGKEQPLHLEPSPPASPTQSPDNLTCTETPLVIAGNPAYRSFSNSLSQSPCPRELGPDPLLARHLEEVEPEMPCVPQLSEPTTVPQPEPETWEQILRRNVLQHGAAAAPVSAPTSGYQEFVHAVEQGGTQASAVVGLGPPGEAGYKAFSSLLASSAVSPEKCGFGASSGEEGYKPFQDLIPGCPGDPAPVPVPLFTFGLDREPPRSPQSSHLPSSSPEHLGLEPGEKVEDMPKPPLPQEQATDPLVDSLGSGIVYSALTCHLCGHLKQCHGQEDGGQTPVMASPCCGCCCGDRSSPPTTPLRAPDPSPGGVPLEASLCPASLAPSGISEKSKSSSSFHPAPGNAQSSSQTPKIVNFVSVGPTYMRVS

T2: hexahistidine-tagged human IL-4Rα extracellular domain (human, UniProt P24394 26-232)
T2 construct: In the MSD assay the plate coat is the His-tagged ECD; also called human IL-4Rα ECD; Wild type receptor; not shown: hexahistidine tag
T2 sequence: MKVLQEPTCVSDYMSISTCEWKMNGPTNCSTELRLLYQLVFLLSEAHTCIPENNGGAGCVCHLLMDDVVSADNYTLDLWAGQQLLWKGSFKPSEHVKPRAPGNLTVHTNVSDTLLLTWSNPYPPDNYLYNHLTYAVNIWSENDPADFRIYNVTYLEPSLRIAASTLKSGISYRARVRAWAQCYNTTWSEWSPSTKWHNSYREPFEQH


Experiments:
[1] = biological target: T1, human IL-4Rα on cells (human PBMC B …); test: cell-based or functional assay
[2] = biological target: T1, human IL-4Rα on cells (human PBMC B …); test: cell-based or functional assay; remark: listed apart in the source
[3] = biological target: T1, human IL-4Rα on cells (human PBMC B …); test: cell-based or functional assay; remark: listed apart in the source
[4] = biological target: T2, hexahistidine-tagged human IL-4Rα …; test: competition MSD ELISA (solution equilibrium, 37 °C), apparent KD, mean of 3 experiments
Experimental: Example 3a. […] A 96-well multi-array plate (Meso Scale Diagnostics, Cat. #L15XA-3) was coated at 4° C. overnight with 0.5 μg/mL hexahistidine-tagged human or cynomolgus monkey IL-4Rα ECD in phosphate buffered saline (PBS). Following coating, plates were washed 10 times with 200 μL PBST (PBS with 0.05% Tween® 20) and blocked with 300 μL/well of PBS casein blocking buffer (Pierce, Cat. #37528) at 37° C. for 1 hour. Plates were then washed 10 times as above, and 50 μL of the preincubated antibody:IL-4Rα dilution series was transferred to the wells and incubated at 37° C. with 300 rpm shaking for […]. Plates were washed 10 times with PBST, 50 μL of 1 μg/mL anti-human antibody sulfo-tag 20 (Meso Scale Diagnostics, Cat. #R32AJ-1) was added to the plates for the assay of Table 7a, and anti-Human NHP Kappa Light chain SULFO-TAG 20 (Meso Scale Diagnostics, Cat #D20TF-6) was added to the plates for the assay of Table 7b, and plates were incubated at 37° C. with 300 rpm shaking for 30 minutes. Plates were washed 10 times with PBST, 150 μL/well of 1× Read Buffer T was added to the wells and analyzed on a SECTOR® Imager 6000 (Meso Scale Diagnostics) 15 min after buffer addition. The apparent KD is determined by fitting a sigmoidal curve to the electrochemiluminescence (ECL) response vs. log (soluble IL-4Rα concentration) using GraphPad Prism 9. Data is graphed with normalized ECL values.

| Binder | Inhibition of IL-4 induced STAT6 phosphorylation, B cells, IC50 [1] [µg/mL] | Inhibition of IL-4 induced STAT6 phosphorylation, CD4+ T cells, IC50 [1] [µg/mL] | Inhibition of IL-13 induced STAT6 phosphorylation in B cells, IC50 [2] [µg/mL] | Inhibition of IL-4 induced CD23 Expression on myeloid cells, IC50 [3] [nM] | Kd [4] [nM] |
| --- | --- | --- | --- | --- | --- |
| anti-human IL-4Rα antibody Ab1 (antibody, human IgG4 S228P, kappa, human kappa light chain; also called anti-human IL-4Rα Ab1; unconjugated Ab1) heavy: QVQLVESGGGLVQPGGSLRLSCVASGFTFSHSSMNWVRQAPGKGLEWVSYISRATGAVYYADSVKGRFTISRDNAKNSLYLQMNSLRDEDTAVYYCAREPVFDYWGQGTLVTVSSASTKGPCVFPLAPCSRSTSESTAALGCLVKDYFPEPVTVSWNSGALTSGVHTFPAVLQSSGLYSLSSVVTVPSSSLGTKTYTCNVDHKPSNTKVDKRVESKYGPPCPPCPAPEFLGGPSVFLFPPKPKDTLMISRTPEVTCVVVDVSQEDPEVKFNWYVDGVEVHNAKTKPREEQFNSTYRVVSVLTVLHQDWLNGKEYKCKVSNKGLPSSIEKTISKAKGQPREPQVYTLPPSREEMTKNQVSLTCLVKGFYPSDICVEWESNGQPENNYKTTPPVLDSDGSFFLYSRLTVDKSRWQQGNVFSCSVMHEALHNHYTQKSLSLSLG light: DIQMTQSPSAMSASVGDRVTITCRASQDISNYLAWFQQKPGKVPTRLIYAASSLQSGVPSRFSGSGSGTEFTLTISSLQPEDFATYYCLQWSSYPRTFGQGTKVEIKRTVAAPSVFIFPPSDEQLKSGTASVVCLLNNFYPREAKVQWKVDNALQSGNSQESVTEQDSKDSTYSLSSTLTLSKADYEKHKVYACEVTHQGLSSPVTKSFNRGEC | 0.019 | 0.017 | 0.03 | 8.27 | 0.0312 |
| anti-human IL-4Rα Ab1 GC conjugate of Example 1b (n=4) (antibody, human IgG4 S228P, kappa, glucocorticoid receptor agonist payload-linker (GC-L, Preparation 8) conjugated to the engineered cysteines at the 124 and 378 position of the heavy chain (EU numbering); n is 4 (average DAR 4.17 by RP-HPLC, 3.85 by TOF MS)) heavy: QVQLVESGGGLVQPGGSLRLSCVASGFTFSHSSMNWVRQAPGKGLEWVSYISRATGAVYYADSVKGRFTISRDNAKNSLYLQMNSLRDEDTAVYYCAREPVFDYWGQGTLVTVSSASTKGPCVFPLAPCSRSTSESTAALGCLVKDYFPEPVTVSWNSGALTSGVHTFPAVLQSSGLYSLSSVVTVPSSSLGTKTYTCNVDHKPSNTKVDKRVESKYGPPCPPCPAPEFLGGPSVFLFPPKPKDTLMISRTPEVTCVVVDVSQEDPEVKFNWYVDGVEVHNAKTKPREEQFNSTYRVVSVLTVLHQDWLNGKEYKCKVSNKGLPSSIEKTISKAKGQPREPQVYTLPPSREEMTKNQVSLTCLVKGFYPSDICVEWESNGQPENNYKTTPPVLDSDGSFFLYSRLTVDKSRWQQGNVFSCSVMHEALHNHYTQKSLSLSLG light: DIQMTQSPSAMSASVGDRVTITCRASQDISNYLAWFQQKPGKVPTRLIYAASSLQSGVPSRFSGSGSGTEFTLTISSLQPEDFATYYCLQWSSYPRTFGQGTKVEIKRTVAAPSVFIFPPSDEQLKSGTASVVCLLNNFYPREAKVQWKVDNALQSGNSQESVTEQDSKDSTYSLSSTLTLSKADYEKHKVYACEVTHQGLSSPVTKSFNRGEC | 0.046 | 0.041 | 0.064 | 10.8 | 0.0247 |
